This test concerns the target HLA-B*0701 (as printed in the head of Table XXII) (human). The test is described as follows: competitive inhibition of radiolabeled standard peptide binding to purified HLA.

For “HBV ENV 313 analog with F at position 1 (peptide; other documents disagree on this pair)”, the IC50 (usually the midpoint of a concentration-inhibition curve) was determined as 24 nM. That is a double-digit nanomolar value.
